Measured values taken from patent US20180021429A1, “ANTICANCER AGENTS OR ANTIMETASTATIC AGENTS USING FSTL1 AND COMBINATION DRUG THEREOF” (PHARMA FOODS INTERNATIONAL CO., LTD., priority 2015, published 2018).
“Also recorded” adds a separate entry of the source.

T1: mouse FSTL1 (Mus musculus, UniProt Q62356)
T1 construct: AAA linker + 10xHis (C); made in house; host or cells: Expi293 (transient expression; purified from culture supernatant on HisPur Cobalt Resin)
T1 sequence (Q62356 with tags, fused parts or gaps): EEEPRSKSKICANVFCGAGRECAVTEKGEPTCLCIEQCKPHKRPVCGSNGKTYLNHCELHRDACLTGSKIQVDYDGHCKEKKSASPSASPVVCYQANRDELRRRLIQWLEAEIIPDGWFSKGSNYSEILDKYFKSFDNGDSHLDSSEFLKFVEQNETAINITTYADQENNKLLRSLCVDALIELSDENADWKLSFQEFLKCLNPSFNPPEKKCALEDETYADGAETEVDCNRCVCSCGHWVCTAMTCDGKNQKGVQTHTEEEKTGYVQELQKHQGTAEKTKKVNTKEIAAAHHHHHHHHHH


How the values were obtained:
mouse FSTL1 = biological target: T1, mouse FSTL1; assay: ELISA, binding activity of purified antibody against mouse FSTL1 (Example 2)
Description: The reactivity of the obtained antibody clones described above with FSTL1 was evaluated by ELISA under the following conditions.
Antibodies used: anti-dinitrophenyl (DNP) antibody (negative control), #5-2, #5-3, #5-8, #5-10, #5-43, #6-55, and #7-34
FIGS. 64 and 65 show results of evaluating binding activity under the condition of Table 3 as to clones differing in screening and antibody purification timings.

[1] = tested on: induction of mesenchymal stem cells (MSCs) by FSTL1; assay: Inhibitory activity against MSC induction, ALCAM-/PDGFRA-positive cells (Example 4); type: cell-based; conditions: mouse bone marrow cells; FSTL1 50 ng/mL; antibody 10 μg/mL; 11 days; vs control antibody
Description: It is known that when bone marrow cells are stimulated with FSTL1, mesenchymal stem cells (MSCs) having pluripotency or self-proliferative capacity grow (Cancer Research 73: 6185, 2013). Thus, 2×10^7 cells/well of bone marrow cells collected from the thigh bone of a C57BL/6 mouse were suspended in 3 mL/well of RPMI1640 (GIBCO/Thermo Fisher Scientific Inc., Cat. No. C11875500BT) medium containing 2% fetal bovine serum, supplemented with 50 ng/mL (final concentration) of FSTL1 (R&D Systems, Inc. Cat#1694-FN-050) and 10 μg/mL of the anti-FSTL1 antibody (#5-2, #5-3, #5-8, #5-10, #5-43, #6-55, or #7-34) or its isotype mouse IgG (anti-DNP antibody) as a control antibody “Control”, and cultured under stimulation (6-well plate). 11 days thereafter, the number of cells was counted while the cells were stained with a PE-labeled anti-ALCAM antibody
(eBioscience, Cat. No. 12-1661-82) and a PE-labeled anti-PDGFRA antibody (eBioscience, Cat#12-1401-81) in order to examine the expression of MSC markers, and the contents of ALCAM-positive cells and PDGFR-positive cells were analyzed by flow cytometry using FACScan (Becton, Dickinson and Company, Code. BECTON-DICKINSON-FACSCAN) to calculate the number of each positive cell per culture.
It is known that when bone marrow cells are stimulated with FSTL1, mesenchymal stem cells (MSCs) having pluripotency or self-proliferative capacity grow (Cancer Research 73: 6185, 2013). […] 11 days thereafter, the number of cells was counted while the cells were stained with a PE-labeled anti-ALCAM antibody (eBioscience, Cat. No. 12-1661-82) and a PE-labeled anti-PDGFRA antibody (eBioscience, Cat#12-1401-81) in order to examine the expression of MSC markers, and the contents of ALCAM-positive cells and PDGFR-positive cells were analyzed by flow cytometry using FACScan (Becton, Dickinson and Company, Code. BECTON-DICKINSON-FACSCAN) to calculate the number of each positive cell per culture.

[2] = tested on: C57/BL/6 mouse-derived bone marrow cells; assay: MSC induction inhibition test using mouse bone marrow cells, FSTL1 stimulation (Example 27); type: cell-based; conditions: FSTL1 20 ng/mL; antibody 10 μg/mL; 8 days; FIG. 21A
Description: In this Example, the inhibitory activity of the anti-FSTL1 antibody was confirmed in an experimental system of mesenchymal stem cell induction while a FSTL1 inhibitory effect on MSC expansion induced not only by FSTL1 but by Snail+ tumor cells was also evaluated. For specific operation, each antibody (10 μg/mL) was added to systems in which C57/BL/6 mouse-derived bone marrow cells were stimulated with FSTL1 (20 ng/mL) or a culture supernatant of tumor cells. After culture for 8 days under stimulation, cell fraction CD45(−) cells (MSCs) containing MSCs at a high rate and CD45(−)CD146(+)ALCAM(+) cells (sMSCs) increasing in number in association with cancer metastasis were analyzed by flow cytometry in the same way as in Example 14, and the number of cells per culture system was counted. In this Example, mouse immunoglobulin manufactured by BioLegend, Inc. (#401408, Cone MG1-45) was used as a control antibody.

[3] = cross reactivity test, antibody diluted from 1000 ng/ml
[4] = antibody diluted from 100 ng/ml

| binding activity against mouse FSTL1 (mouse FSTL1; [4]) | Molecule | inhibitory activity against the expansion of ALCAM-positive cells and PDGFRA-positive cells by FSTL1 [1] | also measured |
| --- | --- | --- | --- |
|  | #6-55: chicken-mouse chimeric anti-FSTL1 antibody clone; variable regions SEQ ID NO: 783 (light), 785 (heavy) (antibody, V domains shown, mouse constant regions) VH: AVTLDESGGGLQTPGGALSLVCKGSGFTFTSVTMQWVRQAPGKGLEWVASVCSGSSTYYAPAVKGRATISRDNGQSTVRLQLSNLRPEDTGTYYCAKIAGRARWSCTSAAYNIDAWGHGTEVIVSS VL: ASTQPSSVSAIPGETVKITCSGGGNNYGWYQQRSPGSAPVTVIYYNDNRPSNIPSRFSGSTSGSTSTLTITGVQADDEAIYYCGSWDSNTDSGIFGAGTTLTVL | slightly strong tendency of inhibitory activity | binding activity against mouse FSTL1 (mouse FSTL1; [3]): specific and equivalently strong binding activity |
|  | #7-34: chicken-mouse chimeric anti-FSTL1 antibody clone; variable regions SEQ ID NO: 787 (light), 789 (heavy) (antibody, V domains shown, mouse constant regions) VH: AVTLDESGGGLQTPGGGLSLVCKASGFTFSSVTMQWVRQAPGKGLEWVASICSGSSTYYGPAVKGRATISRDNGQNTVRLQLNNLRAEDTATYYCAKIVGRGRWSCTSAAYNIDAWGHGTEVIVSS VL: ASTQPSSVSANPGETVKITCSGGGNNYGWYQQKSPGSAPVTVIYYNNNRPSNIPSRFSGSTSGSTSTLTITGVQAEDEAVYYCGSYEGSTDSGIFGAGTTLTVL | slightly strong tendency of inhibitory activity | binding activity against mouse FSTL1 (mouse FSTL1; [3]): specific and equivalently strong binding activity |
|  | #5-43: chicken-mouse chimeric anti-FSTL1 antibody clone; variable regions SEQ ID NO: 779 (light), 781 (heavy) (antibody, V domains shown, mouse constant regions) VH: AVTLDESGGGLQTPGGGLSLVCKGSGFTFSSFNMFWVRQAPGKGLEWVAGIGKDGGTGYGAAVDGRATISKDSGQSTLRLQLNNLRAEDTGTYYCAKAAGGCSYDWCGAYTGDIDTWGHGTEVIVSS VL: ASTQPSSVSANPGEAVKITCSGGSGSYYGWYQQKSPGSAPVTVIYNNNQRPSDIPSRFSGSKSGSTATLTITGVQAEDEAVYFCGGYDSSTGHGGIFGAGTTLTVL | slightly strong tendency of inhibitory activity |  |
| exhibited no binding activity | #5-8: chicken-mouse chimeric anti-FSTL1 antibody clone; variable regions SEQ ID NO: 771 (light), 773 (heavy) (antibody, V domains shown, mouse constant regions) VH: AVTLDESGGGLQTPGGGLSLVCKGSGFTFSSFNMFWVRQAPGKGLEWVAGIGKDGVPKYGTAVDGRATISKDNGQSTMRLQLNNLRAEDTGTYFCAKAAGGCSYDWCGIYTGDIDTWGHGTEVIVSS VL: ASTQPSSVSANPGEAVKITCSGGSGSYYGWYQQKSPGSAPVTVIYNNNQRPSDIPSRFSGSKSGSTATLTITGVQAEDEAVYFCGGYDSSTGHGGIFGAGTTLTVL |  |  |
| exhibited no binding activity | #8-4: chicken-mouse chimeric anti-FSTL1 antibody clone; variable regions SEQ ID NO: 795 (light), 797 (heavy) (antibody, V domains shown, mouse constant regions) VH: AVTLDESGGGLQTPGGGLSLVCKGSGFTLSSFNMFWVRQAPGKGLEWVAGVGKDGGTAYGAAVDGRATISRDSGQSTVRLQLNNLRAEDTGTYFCAKAAGGCSYSWCGAYVGDLDAWGHGTEVIVSS VL: ASSQPSSVSANPGETVKITCSGGSGYYYGWYQQKSPGSAPVTVIYNNDNKPSDIPSRFSGSKSGSTGTLTITGVQVEDEAVYFCGGYDNSGTGIFGAGTTLTVL |  |  |
|  | #13: chicken-mouse chimeric anti-FSTL1 antibody clone; variable regions SEQ ID NO: 815 (light), 817 (heavy) (antibody, V domains shown, mouse constant regions) VH: AVTLDESGGGLQTPGGGLSLVCKASGFTFSSVTMQWVRQAPGKGLEWVASICSGSSTYYGPAVKGRATISRDNGQNTVRLQLNNLRAEDTATYYCAKIVGRGRWSCTSAAYNIDAWGHGTEVIVSS VL: ASTQPSSVSANPGETVKITCSGGGNNYGWYQQKSPGSAPVTVIYNNNNRPSNIPSRFSGSKSGSTNTLTITGVQAEDEAVYYCGSYDSSSDSGIFGAGTTLTVL |  | MSC induction inhibitory activity (CD45(−) MSCs, CD45(−)CD146(+)ALCAM(+) sMSCs) [2]: strong inhibitory effect equivalent to or higher than that of #6-55 |
|  | #33: chicken-mouse chimeric anti-FSTL1 antibody clone; variable regions SEQ ID NO: 823 (light), 825 (heavy) (antibody, V domains shown, mouse constant regions) VH: AVTLDESGGGLQTPGGGLSLVCKASGFTFSSFNMNWVRQAPGKGLEYVAEISGTGSSTYYGSAVKGRATISRDNGQSTVRLQLNNLRAEDTATYFCARGDGAYSIDAWGHGTEVIVSS VL: ASTQPSSVSANPGETVEITCSGDSSYYGWFQQKSPGSAPVTVIYDNTNRPSDIPSRFSGSKSGSTATLTITGVRAEDEAVYYCGGYDSSTYDGIFGAGTTLTVL |  | MSC induction inhibitory activity (CD45(−) MSCs, CD45(−)CD146(+)ALCAM(+) sMSCs) [2]: strong inhibitory effect equivalent to or higher than that of #6-55; also recorded: high MSC induction inhibitory activity equivalent to or higher than that of #6-55 |

| Molecule | binding activity against mouse FSTL1 (mouse FSTL1; [4]) | inhibitory activity against the expansion of ALCAM-positive cells and PDGFRA-positive cells by FSTL1 [1] | also measured |
| --- | --- | --- | --- |
| #8-1: chicken-mouse chimeric anti-FSTL1 antibody clone; variable regions SEQ ID NO: 791 (light), 793 (heavy) (antibody, V domains shown, mouse constant regions) VH: AVTLDESGGGLQTPGGALSLVCKGSGFTFSSFNMFWVRQAPGKGLEWVAGIGKDGVPKYGAAVDGRATISKDNGQSTMRLQLNNLRAEDTGTYFCAKAAGGCSYDWCGIYAGDIDTWGHGTEVIVSS VL: ASTQPSSVSANPGEAVKITCSGGSGSYYGWYQQKSPGSAPVTVIYNNNQRPSDIPSRFSGSKSGSTATLTITGVQAEDEAVYFCGGYDSSSGHGGIFGAGTTLTVL | slightly exhibited binding activity; also recorded: very slightly exhibited binding activity |  |  |
